Measurements published in US20080201790A1, “Method and product for regulating cell responsiveness to external signals” (priority 1993, published 2008).

What was measured:
[1] = system: MAPK; assay: MAPK activity in COS cells transfected with MEKK or Raf (Mono Q FPLC fractions); type: cell-based; details: overexpression in COS1 cells, deprived of serum, no added growth factor
Experimental: COS cells in 100-mm culture dishes were transfected with either the pCVMV5 expression vector alone (1 μg: control) or the pCVMV5 MEKK construct (1 μg: MEKK). After 48 hours, the cells were placed in serum-free medium containing bovine serum albumin (0.1 percent) for 16 to 18 hours to induce quiescence. […] After centrifugation for 10 minutes at maximum speed in a microfuge, COS cell lysates containing 0.5 to 1 mg of soluble protein were subjected to FPLC on a MONO Q column, and eluted fractions were assayed for MAPK activity according to the method described in Heasley et al., p. 545, 1992, Mol. Biol. Cell, Vol. 3.
COS cells were prepared using the method described in Example 3. […] FPLC MONO Q ion-exchange column fractions were prepared as described in Example 3 and assayed for MAPK activity according to the method described in Heasley et al., ibid.

[2] = system: GST-Ras^V12; assay: Binding of COS cell-expressed MEKK1 proteins to GST-Ras^V12 agarose; details: COS cell lysates, immunoblot
Description: COS cells were transiently transfected by the DEAE-dextran protocol as generally described in Example 3. Cos cells were transfected with: (1) p-MEKK1 containing a nucleic acid molecule encoding MEKK1 as described in Lange-Carter et al. (Science 260:315-319, […]); (2) p-MEKKNH2 containing a nucleic acid molecule that encodes a 858 base pair Pvull(682)-Ncol(1541) restriction digest fragment of the amino terminus of MEKK1 ligated into pCMV5; (3) p-MEKKCOOH containing a nucleic acid molecule that encodes a 1435 base pair Ncol(1541)-Sspl(2976) restriction digest fragment that includes the entire kinase domain of MEKK1 ligated into pCMV5; (4) pCMV5 without insert; or (5) p-C4Raf containing a nucleic acid molecule that encodes the amino terminus of Raf-1 ligated into pCMV5. COS cells expressing the various MEKK1 proteins were […] COS cells expressing the various MEKK1 proteins were lysed in EB (1% Triton X-100, 10 mM Tris HCl [pH 7.4], 5 mM EDTA, 50 mM NaCl, 50 mM NaF, 0.1% bovine serum albumin, 0.2 U/ml aprotinin, 1 mM phenylmethylsulfonyl fluoride and 2 mM Na3 VO4). The lysates were separated into two equal parts for separate binding reactions. Half of the lysate was incubated with GST agarose (1.5 μg) while half of the lysate was incubated with GST-Ras^V12 agarose (1.5 μg) (purchased from UBI) for 1 hr at 4° C. The GST-Ras^V12 was preincubated at 30° C. for 30 min with 1 mM nucleotide (GDP or GTPγS). The nucleotide binding reaction was stopped by adding MgCl2 to a final concentration of 20 mM. After the 1 hr binding reaction the agarose beads were pelleted at 2000 rpm for 2 min and washed 3 times with PBS+1.0% Triton X-100. The washed agarose beads were boiled in Laemmli SDS sample buffer and the proteins resolved by SDS polyacrylamide gel electrophoresis. Proteins were transferred onto nitrocellulose for immunoblotting with antibodies specific for an NH2 terminal fusion protein (described in Example 1) or a COOH terminal peptide (described in Example 1).

[3] = system: p42 and p44 forms of MAPK; assay: Phosphorylation of p42 and p44 MAPK in COS cells transfected with MEKK 1 or MEKK 3; type: cell-based; details: forty-eight hours after transfection
Experimental: (§1) COS cells were transfected with the expression plasmid pCVM5 ligated to cDNA clones encoding either MEKK 1 or MEKK 3 protein, or a control pCVM5 plasmid lacking MEKK cDNA inserts. Forty-eight hours after transfection, the COS cells were lysed and the lysate fractionated on a Mono Q FPLC column using conditions described in Example 4. The fractions were analyzed for tyrosine phosphorylation of MAP kinase-like enzymes using the kinase assay described in Example 4.

[4] = system: MEK-1; assay: Phosphorylation of catalytically inactive MEK-1 by Mono Q fractions of MEKK-transfected COS cells; type: biochemical, mouse
Experimental: A cDNA encoding MEK-1 was obtained from mouse B cell cDNA templates with the polymerase chain reaction and oligodeoxynucleotide primers corresponding to portions of the 5′ coding region and 3′ untranslated region of MEK-1. […] Lysates from COS cells transfected with MEKK or mock-transfected (control) were subjected to FPLC on a Mono Q column as described above. […] Reactions were stopped by the addition of 5×SDS sample buffer (10 μl), 1×SDS buffer contains 2 percent SDS, 5 percent glycerol, 62.5 mM tris-HCl (pH 6.8), 5 percent β-mercaptoethanol, and 0.001 percent bromophenol blue. The samples were boiled for 3 minutes and subjected to SDS-PAGE and autoradiography.
Phosphorylation of kinase MEK-1 and MEKK was visable after 5 minutes and maximal after about 20 minutes. The time-dependent increase in MEKK phosphorylation correlated with a decreased mobility of the MEKK protein during SDS-PAGE. […] The slowly migrating species of MEKK were also detected by immunoblotting. Thus, expression of MEKK appears to activate MAPK by activating MEK.

[5] = system: p38 MAPK; assay: Tyrosine phosphorylation of p38 MAPK in COS cells transfected with MEKK 1 or MEKK 3; type: cell-based; details: forty-eight hours after transfection
Experimental: as §1

[6] = fraction 22, 0.15 μg catalytically inactive MEK-1

B1: MEKK 1: MEK kinase 1 protein, SEQ ID No. 2 / 4 (protein)
chain: MVTAVPAVFSKLVTMLNASGSTHFTRMRRRLMAIADEVEIAEVIQLGVEDTVDGHQDSLQAVAPTSCLENSSLEHTVHREKTGKGLSATRLSASSEDISDRLAGVSVGLPSSTTTEQPKPAVQTKGRPHSQCLNSSPLSHAQLMFPAPSAPCSSAPSVPDISKHRPQAFVPCKIPSASPQTQRKFSLQFQRNCSEHRDSDQLSPVFTQSRPPPSSNIHRPKPSRPVPGSTSKLGDATKSSMTLDLGSASRCDDSFGGGGNSGNAVIPSDETVFTPVEDKCRLDVNTELNSSIEDLLEASMPSSDTTVTFKSEVAVLSPEKAENDDTYKDDVNHNQKCKEKMEAEEEEALAIAMAMSASQDALPIVPQLQVENGEDIIIIQQDTPETLPGHTKAKQPYREDAEWLKGQQIGLGAFSSCYQAQDVGTGTLMAVKQVTYVRNTSSEQEEVVEALREEIRMMGHLNHPNIIRMLGATCEKSNYNLFIEWMAGGSVAHLLSKYGAFKESVVINYTEQLLRGLSYLHENQIIHRDVKGANLLIDSTGQRLRIADFGAAARLASKGTGAGEFQGQLLGTIAFMAPEVLRGQQYGRSCDVWSVGCAIIEMACAKPPWNAEKHSNHLALIFKIASATTAPSIPSHLSPGLRDVAVRCLELQPQDRPPSRELLKHPVFRTTW
MAPK activity relative to control cells transfected with plasmid lacking a MEKK 1 cDNA insert [1]: four to five times greater | binding to GST-Ras^V12(GTPγS) relative to GST-Ras^V12(GDP) [2]: at least 5 fold | binding to GST-Ras^V12 (in words) [2]: capable of binding GST-Ras^V12 in a GTP dependent manner | phosphorylation of p42 and p44 MAPK [3]: does induce phosphorylation of p42 and p44 MAPK | phosphorylation of MEK-1 ([4]; Mono Q fractions of transfected COS cells): capable of phosphorylating MEK-1 | time at which phosphorylation of kinase MEK-1 and MEKK was visible [4, 6]: 5 min | time of maximal phosphorylation of kinase MEK-1 and MEKK [4, 6]: about 20 minutes | phosphorylation of p38 MAPK [5]: only induces weak phosphorylation of p38 MAPK
